For orientation: stoichiometry N means the number of molecules, sites or subunits per partner or assembly.

For this assay, the target named is T1, Rubisco L8S8 hexadecamer (Form IB ribulose 1,5-bisphosphate carboxylase/oxygenase) of Synechococcus elongatus … (Synechococcus elongatus PCC7942 …, UniProt Q31NB3 1-472; Q31NB2 1-111).
T1 construct: RbcL, Rubisco large subunit, Synechococcus elongatus PCC7942; printed MW 52.4 kDa; RbcS, Rubisco small subunit, Synechococcus elongatus PCC7942; printed MW 13.3 kDa; Native holoenzyme imaged inside isolated β-carboxysomes; never isolated on its own; also called Rubisco complex; Rubisco holoenzyme; source: endogenous, inside β-carboxysomes purified from Syn7942 (sucrose gradient …)
T1 sequence (Q31NB2 whole entry, chain 2 of 2, other chains not shown): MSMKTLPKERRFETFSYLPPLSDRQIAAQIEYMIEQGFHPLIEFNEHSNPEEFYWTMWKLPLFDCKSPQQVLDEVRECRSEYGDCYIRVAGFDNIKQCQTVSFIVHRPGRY
Description: cryo-EM structure; cryo-electron tomography and subtomogram averaging (emClarity) of Rubisco inside intact β-carboxysomes isolated from Syn7942 grown under low light; 185 carboxysomes; D4 symmetry applied; 3.5 Å. Particulars: partners not purified.

B1: CcmM, Rubisco-scaffolding linker protein of the Syn7942 β-carboxysome (natural protein, UniProt Q03513-2 1-324, looked up)
chain: MSAYNGQGRLSSEVITQVRSLLNQGYRIGTEHADKRRFRTSSWQPCAPIQSTNERQVLSELENCLSEHEGEYVRLLGIDTNTRSRVFEALIQRPDGSVPESLGSQPVAVASGGGRQSSYASVSGNLSAEVVNKVRNLLAQGYRIGTEHADKRRFRTSSWQSCAPIQSSNERQVLAELENCLSEHEGEYVRLLGIDTASRSRVFEALIQDPQGPVGSAKAAAAPVSSATPSSHSYTSNGSSSSDVAGQVRGLLAQGYRISAEVADKRRFQTSSWQSLPALSGQSEATVLPALESILQEHKGKYVRLIGIDPAARRRVAELLIQKP
notes: CcmM, Synechococcus elongatus PCC7942; Mixture of CcmM58 and CcmM35 in the native carboxysome; only an SSUL module is resolved; also called CcmM SSUL; CcmM58; source: endogenous, inside β-carboxysomes purified from Syn7942 (sucrose gradient ultracentrifugation)
Take B1: the “stoichiometry N” value was 4 SSUL domains per Rubisco.

For the origin of these results see article doi:10.1101/2024.09.20.614183, “Rubisco packaging and stoichiometric composition of a native β-carboxysome” (bioRxiv, 2024).
